B1: Drebrin (Homo sapiens), Q16643 (parent)
chain: MAGVSFSGHRLELLAAYEEVIREESAADWALYTYEDGSDDLKLAASGEGGLQELSGHFENQKVMYGFCSVKDSQAALPKYVLINWVGEDVPDARKCACASHVAKVAEFFQGVDVIVNASSVEDIDAGAIGQRLSNGLARLSSPVLHRLRLREDENAEPVGTTYQKTDAAVEMKRINREQFWEQAKKEEELRKEEERKKALDERLRFEQERMEQERQEQEERERRYREREQQIEEHRRKQQTLEAEEAKRRLKEQSIFGDHRDEEEETHMKKSESEVEEAAAIIAQRPDNPREFFKQQERVASASAGSCDVPSPFNHRPGSHLDSHRRMAPTPIPTRSPSDSSTASTPVAEQIERALDEVTSSQPPPLPPPPPPAQETQEPSPILDSEETRAAAPQAWAGPMEEPPQAQAPPRGPGSPAEDLMFMESAEQAVLAAPVEPATADATEIHDAADTIETDTATADTTVANNVPPAATSLIDLWPGNGEGASTLQGEPRAPTPPSGTEVTLAEVPLLDEVAPEPLLPAGEGCATLLNFDELPEPPATFCDPEEVEGESLAAPQTPTLPSALEELEQEQEPEPHLLTNGETTQKEGTQASEGYFSQSQEEEFAQSEELCAKAPPPVFYNKPPEIDITCWDADPVPEEEEGFEGGD
partner: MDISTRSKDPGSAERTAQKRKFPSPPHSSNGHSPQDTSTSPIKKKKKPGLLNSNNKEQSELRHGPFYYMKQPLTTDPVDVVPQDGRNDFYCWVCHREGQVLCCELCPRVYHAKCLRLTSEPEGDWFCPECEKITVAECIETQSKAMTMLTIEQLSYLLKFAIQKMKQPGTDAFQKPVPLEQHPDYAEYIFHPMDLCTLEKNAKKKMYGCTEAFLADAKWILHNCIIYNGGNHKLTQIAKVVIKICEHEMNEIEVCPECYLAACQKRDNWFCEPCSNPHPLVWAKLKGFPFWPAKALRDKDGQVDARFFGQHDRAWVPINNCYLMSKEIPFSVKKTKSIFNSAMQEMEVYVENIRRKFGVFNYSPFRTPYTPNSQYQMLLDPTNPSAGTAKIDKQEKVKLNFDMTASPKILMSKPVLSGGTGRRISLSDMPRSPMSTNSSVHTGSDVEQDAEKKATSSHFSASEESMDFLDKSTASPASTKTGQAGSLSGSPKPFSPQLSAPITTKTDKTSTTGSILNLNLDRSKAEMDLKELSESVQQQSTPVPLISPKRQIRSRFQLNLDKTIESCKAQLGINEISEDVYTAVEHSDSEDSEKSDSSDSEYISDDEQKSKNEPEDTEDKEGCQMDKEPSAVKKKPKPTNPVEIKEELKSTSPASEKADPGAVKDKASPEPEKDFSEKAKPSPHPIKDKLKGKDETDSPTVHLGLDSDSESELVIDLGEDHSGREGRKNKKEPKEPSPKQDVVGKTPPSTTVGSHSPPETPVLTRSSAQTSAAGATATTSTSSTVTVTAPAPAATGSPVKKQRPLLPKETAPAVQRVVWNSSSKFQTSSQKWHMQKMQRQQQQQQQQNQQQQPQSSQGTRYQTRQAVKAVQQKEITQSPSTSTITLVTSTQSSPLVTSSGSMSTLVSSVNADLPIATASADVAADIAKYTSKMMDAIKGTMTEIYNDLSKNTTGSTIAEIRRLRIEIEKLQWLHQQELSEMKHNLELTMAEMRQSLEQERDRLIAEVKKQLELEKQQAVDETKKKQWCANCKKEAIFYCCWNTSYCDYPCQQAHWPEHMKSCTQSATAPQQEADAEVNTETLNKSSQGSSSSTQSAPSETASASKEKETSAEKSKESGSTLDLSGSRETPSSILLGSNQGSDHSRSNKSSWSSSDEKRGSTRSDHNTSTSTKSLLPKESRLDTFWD
B2: MYND-type zinc finger-containing chromatin reader ZMYND8 (Homo sapiens), Q9ULU4 (parent)
chain: B1 partner
partner: B1 chain

Variants of B1 are the subject of the first test. The following applies: with zmyd8_human ZMYND8, Q9ULU4.
In the case of R10G, the “effect of a mutation on the interaction” value is on record as “disrupting interaction strength”.

A further test covers variants of B2. Conditions: with dreb_human DBN1, Q16643.
For the variant H311A, the “effect of a mutation on the interaction” value was “disrupting interaction strength”.

These data come from IntAct's records for PubMed 28966017.
